In article PMC10202384:

Biological target: recombinant monomeric RBD of the SARS-CoV-2 spike protein, tag cleaved, labelled with Alexa Fluor 488 (SARS-CoV-2) (UniProt P0DTC2)
Experiment: fluorescence polarisation

Work on “platelet-derived purified human αIIbβ3 protein (from UniProt P05106 27-788) (complex)” yielded a Kd of 96 nM and a stoichiometry N of 1.3.
